How the values were obtained:
Test in all cases: cell-based or functional assay
[1] = molecular target: SARS-CoV-2 S蛋白, 突变株 B.1.1.7 (SARS-CoV-2)
[2] = molecular target: SARS-CoV-2 S蛋白, 突变株 B.1.525 (SARS-CoV-2)
SARS-CoV-2 S蛋白, 突变株 P.1 = SARS-CoV-2 S蛋白, 突变株 P.1 (SARS-CoV-2)
[3] = molecular target: SARS-CoV-2 S蛋白, 突变株 B.1.617.2 (SARS-CoV-2)
[4] = molecular target: SARS-CoV-2 S蛋白, 突变株 B.1.351 (SARS-CoV-2)

B1: 抗SARS-CoV-2全人源化单克隆抗体1B3 (antibody, V domains shown)
VH: VQLVESGGGVVQPGRSLRLSCAASGFTFSSYAMHWVRQAPGKGLEWVAVISYDGSNKYYADSVKGRFTISRDNSKNTLYLQMNSLRAEDTAVYYCAKVAGGPYYYDSSGRDWYFDLWGRGTLVTVSA
VL: DIQMTQSPSSLSASVGDRVSITCRASQSISSFLNWFQQKPGKAPNLLIYAASSLESGVPSRFSGSGSGTDFTLTISSLQPEDFATYYCQQSYSAPPTFGQGTRLEIKR
[1]
  EC50, 假病毒细胞模型中和活性 (luciferase, ACE2-293T细胞): 2.51 µg/mL
[2]
  EC50, 假病毒细胞模型中和活性 (luciferase, ACE2-293T细胞): 1.7 µg/mL
SARS-CoV-2 S蛋白, 突变株 P.1
  EC50, 假病毒细胞模型中和活性 (luciferase, ACE2-293T细胞): 3.83 µg/mL
[3]
  EC50, 假病毒细胞模型中和活性 (luciferase, ACE2-293T细胞): 1.69 µg/mL
[4]
  EC50, 假病毒细胞模型中和活性 (luciferase, ACE2-293T细胞): 2.05 µg/mL
